Assays:
Conditions in all cases: remark: other sources report otherwise
[1] = target: alpha-synuclein fibrils, P37840; assay: SPR, captured mAb
[2] = target: monomeric alpha-synuclein, P37840; assay: SPR, captured mAb
[3] = target: alpha-synuclein fibrils, P37840; assay: SPR, captured mAb; alpha-synuclein fibrils
[4] = target: monomeric alpha-synuclein, P37840; assay: SPR, captured mAb; alpha-synuclein monomers
[5] = target: alpha-synuclein fibrils, P37840; assay: SPR single-cycle kinetics, antibody captured on anti-mouse chip, alpha-synuclein fibrils injected
[6] = target: monomeric alpha-synuclein, P37840; assay: SPR single-cycle kinetics, antibody captured on anti-mouse chip, monomeric alpha-synuclein injected
[7] = target: monomeric alpha-synuclein, P37840; assay: SPR, captured mAb; steady-state model
[8] = target: monomeric alpha-synuclein, P37840; assay: SPR, captured mAb; heterogeneous ligand model

Row | koff [1] | kon [1] | koff [2] | kon [2] | Kd [3] | Kd [4] | Kd [1] | Kd [2] | Kd [5] | koff [5] | Kd [6] | koff [6] | Kd [7] | koff [8] | kon [8] | Binder
1 | 0.000998 s⁻¹ | 337000 M⁻¹ s⁻¹ | 0.012 s⁻¹ | 3280 M⁻¹ s⁻¹ | 3 nM | 3660 nM |  |  |  |  |  |  |  |  |  | ACI-7088-4317A4-Ab1 (antibody, V domains shown) VH: EVQLQQSGAELVRPGASVKLSCTASGFNIKDDYMHWVKQRPEQGLEWIGWIDPENGDTEYASKFQGKATMTADTSSNTAYLQLSSLTSEDTAVYYCKTWGTTQALFPYWGQGTLVTVSA VL: DIVMTQSQKFMYTSVGDRVSITCKASQNVGNAVGWYQQKAGQSPKLLIHSASNRYTGVPDRFTGTGSGTDFTLTINNMQSEDLADYFCQQYRSYPLTFGAGTKLELK
2 |  |  | 0.00012 s⁻¹ | 40500 M⁻¹ s⁻¹ |  | 3 nM |  |  |  |  |  |  |  |  |  | ACI-7079-2503C6-Ab1 (antibody, V domains shown) VH: DVQLQESGPGLVKPSQSLSLTCSVTGYSITSGYYWNWIRLFPGNKLEWLGYINYDGSNNFNPSLKNRISITRDTSKNQFFLKLNSVTSEDTATYFCLRGDWDWGQGTLVTVSA VL: not shown
3 | 1.6e-08 s⁻¹ | 7310 M⁻¹ s⁻¹ | 0.0149 s⁻¹ | 50800 M⁻¹ s⁻¹ | 0.002 nM | 293 nM |  |  |  |  |  |  |  |  |  | ACI-7079-2603F3-Ab1 (antibody, V domains shown) VH: EVQLVESGGGLVQPKGSLKLSCAASGFTFNTYAMHWVRQAPGKGLEWVARIRSKGSNYATYYADSVKDRFTISRDDSQSMLYLQMNNLKTEDTAMYYCVRGGGDSWFAYWGQGTLVTVSA VL: QIVLTQSPAIMSASPGERVTMTCTASSSVSYMHWYQQKSGTSPKRWIYDTSKLASGVPARFSGSGSGASYTLTISSMEAEDAATYYCQQWNSNPPTFGGGTQLAIK
4 | 4.16e-07 s⁻¹ | 6940 M⁻¹ s⁻¹ |  |  | 0.06 nM |  |  |  |  |  |  |  |  |  |  | ACI-7067-1113D10-Ab1 (antibody, V domains shown) VH: EVQLVESGGGLVQPKGSLKLSCAASGFTFNTYALHWVRQAPGKGLEWVARIRSKSSNYATYYADSVKDRFTISRDDSQSMLYLQMNNLKTEDTGMYYCVRGGVSPFDYWGQGTTLTVSS VL: QIVLTQSPAIMSASPGEKVTMTCSASSSVSYMHWYQQKSGTSPKRWIYDTSKLASGVPARFSGSGSGTSYSLTISSMEAEDSATYYCQQWSNNPPTFGGGTKLEIK
5 | 0.000427 s⁻¹ | 17300 M⁻¹ s⁻¹ | 0.00043 s⁻¹ | 264000 M⁻¹ s⁻¹ |  |  | 24.7 nM | 1.6 nM |  |  |  |  |  |  |  | ACI-7079-2501D10-Ab1 (antibody, V domains shown) VH: EVQLVESGGGLVQPKGSLKVSCAASGFTFKTYAMHWVRQAPGKGLEWVARIRSENSNFAKYYADSVKDRFTISRDDSQSMLYLQMNNLKTEDTAMYYCVRGYNGSSLDYWGQGTTLTVSS VL: QIVLTQSPAIMSAFPGERVTMTCSASSSVNYMHWYQQKSGTSPKRWIYDTSKLASGVPARFSGGGSGTSYSLTISNMEAEDAATYYCQQWRSNPPTFGGGTKLEIK
6 | 0.000283 s⁻¹ | 176000 M⁻¹ s⁻¹ |  |  |  |  | 2.9 nM |  | 1.6 nM | 0.00024 s⁻¹ | 38.8 nM | 0.019 s⁻¹ | 43.7 nM | 0.0265 s⁻¹ | 55500 M⁻¹ s⁻¹ | ACI-7067-1101C8-Ab2 (antibody, V domains shown) VH: EVQLVESGGGLVQPKGSLKLSCAASGFSFNIYAMNWVRQAPGKGLEWVARIRSKSNNYATYYADSVKDRFTISRADSESMLYLQMNNLKTEDTAMYYCVRVGLRFYAMDYWGQGTSVTVSS VL: DVLMTQTPLSLPVSLGDQASISCRSSQSIVHSNGNTYLEWYLQKPGQSPKLLIYKVSNRFSGVPDRFSGSGSGTDFTLKISRVEAEDLGVYYCFQGSQGPLTFGAGTKLELK
7 | 0.000528 s⁻¹ | 19000 M⁻¹ s⁻¹ | 0.00084 s⁻¹ | 291000 M⁻¹ s⁻¹ |  |  | 27.8 nM | 2.9 nM |  |  |  |  |  |  |  | ACI-7079-2501G2-Ab2 (antibody, V domains shown) VH: EVQLVESGGGLVQPKGSLKLSCAASGFNFNTYAMNWVRQAPGKGLEWVARIRTKSNNFATYYAHSVKDRFTISRDDSESMLYLQMNNLKTEDTAMYYCVRQGLAYYAMDYWGQGTSVTVSS VL: DVLMTQTPLSLPVSLGDQVSISCRSSQTIVHSNGNTYLEWYLQKPGQSPKLLIYKVSNRFSGVPDRFSGSGSGTDFTLKISRVEAEDLGVYYCFQGSQGPLTFGAGTKLELK
8 |  |  | 0.26 s⁻¹ | 8.25e+07 M⁻¹ s⁻¹ |  | 3.2 nM |  |  |  |  |  |  |  |  |  | ACI-8033-18D12-Ab1 (antibody, V domains shown) VH: QVQLQQPGAELVKPGASVKMSCKASGYTFTSYWITWVRQRPGQGLDWIGDIYPGGGVTNYNEKFKTKATLTVDTSSSTAYMHLSSLTSEDSAVYFCATAQTTFAHWGQGTLVTVSA VL: DVLMTQTPLSLPVSLGDQASISCRSSQNIAHNNGNTYLEWYLQKPGQSPKLLIYKVSNRFSGVPDRFSGSGSGTDFTLKISRVEAEDLGVYYCFQGSHVPRTFGGGTKLEIK

— patent US20250340623A1
